Measurements reported in US20120308575A1.

What was measured:
[1] = target: recombinant human TNF-α (Product 210-TA-050, R&D) (human) (UniProt P01375); experiment: cell-based or functional assay
[2] = target: recombinant human TNF-α (Product 210-TA-050, R&D) (human) (UniProt P01375); experiment: SPR, Biacore T100, TNFα amine-coupled to CM5 chip, antibody in flow
[3] = target: recombinant human TNF-α (Product 210-TA-050, R&D) (human) (UniProt P01375); experiment: flow cytometry competition: FITC-TNF-α (100 ng/ml) on U937 cells, antibody titrated; average of 3
[4] = target: recombinant human TNF-α (Product 210-TA-050, R&D) (human) (UniProt P01375); experiment: flow cytometry competition: FITC-TNF-α (100 ng/ml) on U937 cells, antibody titrated; experiment 1
[5] = target: recombinant human TNF-α (Product 210-TA-050, R&D) (human) (UniProt P01375); experiment: flow cytometry competition: FITC-TNF-α (100 ng/ml) on U937 cells, antibody titrated; experiment 2
[6] = target: recombinant human TNF-α (Product 210-TA-050, R&D) (human) (UniProt P01375); experiment: flow cytometry competition: FITC-TNF-α (100 ng/ml) on U937 cells, antibody titrated; experiment 3
[7] = target: recombinant human TNF-α (Product 210-TA-050, R&D) (human) (UniProt P01375); experiment: competition ELISA: biotin-TNF-α (10 ng/ml) on coated P75 receptor-Fc, antibody titrated; average of 3
[8] = target: recombinant human TNF-α (Product 210-TA-050, R&D) (human) (UniProt P01375); experiment: competition ELISA: biotin-TNF-α (10 ng/ml) on coated P75 receptor-Fc, antibody titrated; experiment 1
[9] = target: recombinant human TNF-α (Product 210-TA-050, R&D) (human) (UniProt P01375); experiment: competition ELISA: biotin-TNF-α (10 ng/ml) on coated P75 receptor-Fc, antibody titrated; experiment 2
[10] = target: recombinant human TNF-α (Product 210-TA-050, R&D) (human) (UniProt P01375); experiment: competition ELISA: biotin-TNF-α (10 ng/ml) on coated P75 receptor-Fc, antibody titrated; experiment 3

recombinant human TNF-α (Product 210-TA-050, R&D) (human), sequence (P01375 77-233 limits assumed): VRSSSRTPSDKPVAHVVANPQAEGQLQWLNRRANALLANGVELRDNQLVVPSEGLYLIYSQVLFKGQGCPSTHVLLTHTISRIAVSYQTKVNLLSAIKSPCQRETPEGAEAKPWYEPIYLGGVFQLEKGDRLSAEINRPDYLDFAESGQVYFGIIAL

- Increase in Body Temperature of Rabbits (rhTNF-α 5 µg/kg i.v. mixed with antibody 500 µg/kg; 60 min) [1]: 0 ° C.
- Kd [2]: 630 pM
- IC50 [3]: 7.36 µg/mL
- IC50 [4]: 6.62 µg/mL
- IC50 [5]: 8.03 µg/mL
- IC50 [6]: 7.44 µg/mL
- IC50 [7]: 2.35 µg/mL
- IC50 [8]: 2.3 µg/mL
- IC50 [9]: 2.15 µg/mL
- IC50 [10]: 2.59 µg/mL
Substance: fully human antibody adalimumab (Humira, D2E7, commercial product)
- IC50 of resistance to TNF-α-mediated killing of L929 cells (MTS), average [1]: 0.316 µg/mL
- IC50 of resistance to TNF-α-mediated killing of L929 cells (MTS), experiment 1 [1]: 0.296 µg/mL
- IC50 of resistance to TNF-α-mediated killing of L929 cells (MTS), experiment 2 [1]: 0.335 µg/mL
- IC50 of resistance to TNF-α-mediated killing of L929 cells (MTS), experiment 3 [1]: 0.318 µg/mL
- Survival Status of Mice (rhTNF-α 1 µg + D-galactosamine 20 mg; antibody 1 µg i.p. 30 min before) [1]: 20%
- Survival Status of Mice (rhTNF-α 1 µg + D-galactosamine 20 mg; antibody 2 µg i.p. 30 min before) [1]: 40%
- Survival Status of Mice (rhTNF-α 1 µg + D-galactosamine 20 mg; antibody 4 µg i.p. 30 min before) [1]: 40%
- Survival Status of Mice (rhTNF-α 1 µg + D-galactosamine 20 mg; antibody 6 µg i.p. 30 min before) [1]: 50%
- Survival Status of Mice (rhTNF-α 1 µg + D-galactosamine 20 mg; antibody 8 µg i.p. 30 min before) [1]: 60%
